# From patent US20040110922A1
# Assays:
# Assay in all cases: cell-based or functional assay
# [1] = target: gp120 of HIV-1 clade C primary isolate DU179 (R5/X4), on virus (HIV-1 DU179)
# [2] = target: gp120 of HIV-1 MN (laboratory strain, on virus) (HIV-1 MN)
# [3] = target: gp120 of HIV-1 clade B primary isolate JR-FL, on virus (HIV-1 JR-FL)
# [4] = target: gp120 of HIV-1 clade B primary isolate Bal, on virus (HIV-1 Bal)
# [5] = target: gp120 of HIV-1 clade B primary isolate GV, on virus (HIV-1 GV)
# [6] = target: gp120 of HIV-1 clade C primary isolate DU368 (R5), on virus (HIV-1 DU368)
# [7] = target: gp120 of HIV-1 clade C primary isolate DU151 (R5), on virus (HIV-1 DU151)
# [8] = target: gp120 of HIV-1 clade C primary isolate DU422 (R5), on virus (HIV-1 DU422)
# [9] = target: gp120 of HIV-1 clade B primary isolate P15, on virus (HIV-1 P15)
# [10] = target: gp120 of HIV-1 clade B primary isolate PVO, on virus (HIV-1 PVO)
# [11] = target: gp120 of HIV-1 IIIB (laboratory strain, on virus) (HIV-1 IIIB)
substance,measurement,setting,value
"product of clone 611-2, CD4(V1 + V2)-hIgG1 (from UniProt P01730 26-203) (Fc fusion)",% reduction in p24 in PMBC at 890 nM,[1],78%
same,"ID50 (nM), protection of MT-2 cells from virus-induced cell killing",[2],< 0.41 nM
same,% reduction in p24 in PMBC at 890 nM,[3],100%
same,"ID90 (nM), 90% reduction of p24 production in PMBC",[3],8.2 nM
same,% reduction in p24 in PMBC at 890 nM,[4],100%
same,"ID90 (nM), 90% reduction of p24 production in PMBC",[4],5.3 nM
same,% reduction in p24 in PMBC at 890 nM,[5],88%
same,% reduction in p24 in PMBC at 890 nM,[6],53%
same,% reduction in p24 in PMBC at 890 nM,[7],63%
same,% reduction in p24 in PMBC at 890 nM,[8],9%
same,% reduction in p24 in PMBC at 890 nM,[9],94%
same,% reduction in p24 in PMBC at 890 nM,[10],96%
same,"ID50 (nM), protection of MT-2 cells from virus-induced cell killing",[11],0.79 nM
